Laboratory results: US5847088A, “Antibodies specific for platelet-activating factor acetylhydrolase” (ICOS Corporation, priority 1995, dated 1998)
Numbering of substitutions follows the chain as printed. In names and notes the source's numbering stands.

B1: C291S: PAF-AH analog, Cys291 mutated to serine (protein)
chain: MVPPKLHVLFCLCGCLAVVYPFDWQYINPVAHMKSSAWVNKIQVLMAAASFGQTKIPRGNGPYSVGCTDLMFDHTNKGTFLRLYYPSQDNDRLDTLWIPNKEYFWGLSKFLGTHWLMGNILRLLFGSMTTPANWNSPLRPGEKYPLVVFSHGLGAFRTLYSAIGIDLASHGFIVAAVEHRDRSASATYYFKDQSAAEIGDKSWLYLRTLKQEEETHIRNEQVRQRAKECSQALSLILDIDHGKPVKNALDLKFDMEQLKDSIDREKIAVIGHSFGGATVIQTLSEDQRFRSGIALDAWMFPLGDEVYSRIPQPLFFINSEYFQYPANIIKMKKCYSPDKERKMITIRGSVHQNFADFTFATGKIIGHMLKLKGDIDSNVAIDLSNKASLAFLQKHLGLHKDFDQWDCLIEGDDENLIPGTNINTTNQHIMLQNSSGIEKYN
B2: C334S: PAF-AH analog, cysteine mutated to serine (protein)
chain: B1 chain with S291C, C334S
B3: V279F: PAF-AH with phenylalanine for valine at position 279, mutation of PAF-AH deficient patients (protein)
chain: B1 chain with V279F, S291C
B4: C407S: PAF-AH analog, cysteine mutated to serine (protein)
chain: B1 chain with S291C, C407S

Experiment: PAF-AH activity of PAF-AH products expressed in E. coli (hydrolysis of 3H-acetate from [acetyl-3H] PAF)
Format: biochemical
Conditions: for PAF-AH activity: amino acid substitution products expressed in E. coli

Row | Molecule | PAF-AH activity | PAF-AH activity of mutant expression construct (E. coli, control construct lacking the mutation fully active)
1 | B1 | + (1-10 U/ml/OD600 activity) | –
2 | B2 | ++++ (wild type PAF-AH activity of about 40-60 U/ml/OD600) | –
3 | B3 | – | no PAF-AH activity
4 | B4 | +++ (about 20-40 U/ml/OD600 activity) | –
